Tests used:
[1] = target: FGFR1 (UniProt P11362); assay: phosphorylation enrichment, bacterial display (enrichment ratio); higher = better substrate or ligand; peptides without Tyr show the background
[2] = target: Fes (UniProt P07332); assay: as above
[3] = target: EPHB2 (UniProt P29323); assay: as above
[4] = target: Fyn (UniProt P06241); assay: as above
[5] = target: Hck (UniProt P08631); assay: as above
[6] = tested on: c-Abl (mouse); assay: as above
[7] = tested on: AncSZ; assay: as above
[8] = tested on: c-Src; assay: as above
[9] = tested on: Fer (mouse); assay: as above
[10] = target: EPHB1 (UniProt P54762); assay: as above
[11] = target: FGFR3 (UniProt P22607); assay: as above
[12] = target: MERTK (UniProt Q12866); assay: as above
[13] = target: Jak2 (UniProt O60674); assay: as above
[14] = target: SHP2-C SH2; assay: SH2 binding enrichment of the phosphorylated peptide, bacterial display (enrichment ratio); higher = better substrate or ligand; peptides without Tyr show the background
[15] = target: c-Src SH2; assay: as above
[16] = target: Grb2 SH2 (UniProt P62993); assay: as above
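For SH2 binding enrichment of the phosphorylated peptide, bacterial display in this document: peptide library displayed on the E. coli surface as eCPX fusions, selected cells deep-sequenced, score is each peptide's frequency after selection divided by its frequency in the input.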
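For phosphorylation enrichment, bacterial display in this document: 11-residue human phosphosite peptides and single-mutation variants displayed on the E. coli surface, counted by deep sequencing, each peptide's frequency after selection divided by its frequency in the unselected input library; frequency after pTyr selection over input frequency; kinase dosed for 20-30% of maximal phosphorylation in three min.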

Chain of EPHB2 (P29323 whole entry, looked up): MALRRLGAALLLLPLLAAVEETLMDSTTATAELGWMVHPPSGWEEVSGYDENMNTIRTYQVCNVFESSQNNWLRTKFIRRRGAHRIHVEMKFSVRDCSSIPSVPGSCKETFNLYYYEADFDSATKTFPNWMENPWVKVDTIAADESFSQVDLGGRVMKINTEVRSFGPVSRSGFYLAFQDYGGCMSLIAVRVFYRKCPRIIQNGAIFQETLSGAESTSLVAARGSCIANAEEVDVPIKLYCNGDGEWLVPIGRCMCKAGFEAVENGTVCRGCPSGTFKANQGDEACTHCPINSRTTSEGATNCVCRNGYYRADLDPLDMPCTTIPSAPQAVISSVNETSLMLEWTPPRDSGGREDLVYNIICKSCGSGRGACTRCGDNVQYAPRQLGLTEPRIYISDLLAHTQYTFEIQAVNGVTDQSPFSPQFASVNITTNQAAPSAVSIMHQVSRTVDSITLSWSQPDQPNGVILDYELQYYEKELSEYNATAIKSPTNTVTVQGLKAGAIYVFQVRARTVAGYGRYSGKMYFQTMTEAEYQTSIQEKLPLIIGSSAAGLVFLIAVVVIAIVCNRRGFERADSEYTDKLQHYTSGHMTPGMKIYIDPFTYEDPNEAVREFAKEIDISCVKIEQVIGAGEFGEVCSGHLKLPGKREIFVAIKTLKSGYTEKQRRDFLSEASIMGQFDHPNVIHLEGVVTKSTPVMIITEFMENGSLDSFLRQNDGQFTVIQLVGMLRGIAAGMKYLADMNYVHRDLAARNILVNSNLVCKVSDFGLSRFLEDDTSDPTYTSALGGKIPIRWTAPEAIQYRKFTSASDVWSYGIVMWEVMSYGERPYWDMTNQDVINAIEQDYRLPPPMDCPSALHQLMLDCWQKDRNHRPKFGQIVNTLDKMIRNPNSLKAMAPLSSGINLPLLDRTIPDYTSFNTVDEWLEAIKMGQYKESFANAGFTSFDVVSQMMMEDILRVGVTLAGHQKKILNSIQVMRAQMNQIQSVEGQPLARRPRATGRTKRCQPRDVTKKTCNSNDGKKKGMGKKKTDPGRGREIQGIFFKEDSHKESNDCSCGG
Chain of FGFR3 (P22607 whole entry, looked up): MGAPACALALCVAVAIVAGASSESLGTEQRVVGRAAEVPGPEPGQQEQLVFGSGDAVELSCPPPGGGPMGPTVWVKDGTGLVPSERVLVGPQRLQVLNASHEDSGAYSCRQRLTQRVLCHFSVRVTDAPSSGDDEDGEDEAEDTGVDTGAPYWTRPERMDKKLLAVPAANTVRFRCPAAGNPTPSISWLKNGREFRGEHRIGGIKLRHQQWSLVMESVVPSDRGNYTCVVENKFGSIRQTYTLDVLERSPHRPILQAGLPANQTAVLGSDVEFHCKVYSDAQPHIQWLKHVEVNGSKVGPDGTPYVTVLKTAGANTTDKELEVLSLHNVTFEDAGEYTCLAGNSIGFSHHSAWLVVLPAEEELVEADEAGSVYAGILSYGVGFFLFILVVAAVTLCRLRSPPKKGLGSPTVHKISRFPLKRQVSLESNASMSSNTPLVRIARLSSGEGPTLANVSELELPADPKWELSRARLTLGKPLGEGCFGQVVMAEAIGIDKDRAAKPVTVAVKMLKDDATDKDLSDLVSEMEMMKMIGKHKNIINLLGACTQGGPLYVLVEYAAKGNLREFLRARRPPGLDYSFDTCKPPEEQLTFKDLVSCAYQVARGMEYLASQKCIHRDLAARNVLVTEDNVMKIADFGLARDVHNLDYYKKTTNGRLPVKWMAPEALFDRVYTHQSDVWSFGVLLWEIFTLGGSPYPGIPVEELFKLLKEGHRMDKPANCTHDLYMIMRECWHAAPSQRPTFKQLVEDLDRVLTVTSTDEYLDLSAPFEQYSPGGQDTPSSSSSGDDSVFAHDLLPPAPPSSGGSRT
Chain of MERTK (Q12866 whole entry, looked up): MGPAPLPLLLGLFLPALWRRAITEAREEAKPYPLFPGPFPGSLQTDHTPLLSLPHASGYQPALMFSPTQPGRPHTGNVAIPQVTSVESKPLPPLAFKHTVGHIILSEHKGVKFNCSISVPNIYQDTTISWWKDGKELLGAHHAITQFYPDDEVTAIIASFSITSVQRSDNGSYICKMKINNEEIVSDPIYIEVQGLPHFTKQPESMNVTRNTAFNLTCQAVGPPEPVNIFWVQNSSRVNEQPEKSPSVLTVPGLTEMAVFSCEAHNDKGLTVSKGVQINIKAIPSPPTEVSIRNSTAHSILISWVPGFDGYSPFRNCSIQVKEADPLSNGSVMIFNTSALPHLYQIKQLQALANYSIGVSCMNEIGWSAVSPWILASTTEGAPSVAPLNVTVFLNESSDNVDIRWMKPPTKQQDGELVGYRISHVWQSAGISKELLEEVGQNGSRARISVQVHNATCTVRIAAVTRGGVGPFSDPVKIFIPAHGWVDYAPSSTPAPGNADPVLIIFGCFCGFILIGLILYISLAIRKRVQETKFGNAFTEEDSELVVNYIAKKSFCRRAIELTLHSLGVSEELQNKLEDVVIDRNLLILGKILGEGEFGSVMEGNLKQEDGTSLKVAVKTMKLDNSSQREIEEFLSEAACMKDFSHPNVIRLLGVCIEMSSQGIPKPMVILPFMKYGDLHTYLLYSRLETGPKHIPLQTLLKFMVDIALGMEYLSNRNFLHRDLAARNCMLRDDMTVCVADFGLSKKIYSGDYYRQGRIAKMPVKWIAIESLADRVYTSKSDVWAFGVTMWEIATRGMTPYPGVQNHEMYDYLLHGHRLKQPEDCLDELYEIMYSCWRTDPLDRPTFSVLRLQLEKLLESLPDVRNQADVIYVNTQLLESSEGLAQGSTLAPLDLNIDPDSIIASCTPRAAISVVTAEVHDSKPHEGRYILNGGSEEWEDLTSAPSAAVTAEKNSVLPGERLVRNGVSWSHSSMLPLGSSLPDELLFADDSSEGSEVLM
Chain of Fyn (P06241 whole entry, looked up): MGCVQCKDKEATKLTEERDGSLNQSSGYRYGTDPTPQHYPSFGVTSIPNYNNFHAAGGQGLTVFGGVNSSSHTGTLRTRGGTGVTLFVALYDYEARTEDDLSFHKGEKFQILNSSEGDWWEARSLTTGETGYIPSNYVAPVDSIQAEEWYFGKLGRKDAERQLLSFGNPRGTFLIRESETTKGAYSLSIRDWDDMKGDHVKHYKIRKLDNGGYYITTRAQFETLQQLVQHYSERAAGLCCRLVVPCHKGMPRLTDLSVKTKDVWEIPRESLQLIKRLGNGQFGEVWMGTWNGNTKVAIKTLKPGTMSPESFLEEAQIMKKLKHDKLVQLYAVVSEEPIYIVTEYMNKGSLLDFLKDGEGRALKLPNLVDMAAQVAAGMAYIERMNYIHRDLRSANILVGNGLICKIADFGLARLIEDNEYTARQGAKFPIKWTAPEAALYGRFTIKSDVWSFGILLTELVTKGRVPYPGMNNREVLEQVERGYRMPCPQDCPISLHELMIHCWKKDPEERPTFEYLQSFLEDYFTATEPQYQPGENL
Chain of Hck (P08631 whole entry, looked up): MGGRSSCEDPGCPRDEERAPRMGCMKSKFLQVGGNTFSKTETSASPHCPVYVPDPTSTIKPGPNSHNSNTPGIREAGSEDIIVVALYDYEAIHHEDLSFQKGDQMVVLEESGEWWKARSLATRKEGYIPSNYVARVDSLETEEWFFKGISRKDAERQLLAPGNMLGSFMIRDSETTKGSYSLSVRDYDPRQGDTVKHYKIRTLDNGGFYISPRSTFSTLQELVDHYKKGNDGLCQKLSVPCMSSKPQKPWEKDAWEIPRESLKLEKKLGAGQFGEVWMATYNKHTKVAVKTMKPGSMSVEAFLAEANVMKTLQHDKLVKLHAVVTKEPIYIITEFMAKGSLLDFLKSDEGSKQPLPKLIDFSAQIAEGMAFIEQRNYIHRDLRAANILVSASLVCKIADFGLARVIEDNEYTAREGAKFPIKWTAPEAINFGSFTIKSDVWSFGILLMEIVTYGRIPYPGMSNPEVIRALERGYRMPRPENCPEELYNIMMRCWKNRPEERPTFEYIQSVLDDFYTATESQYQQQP
Chain of FGFR1 (P11362 whole entry, looked up): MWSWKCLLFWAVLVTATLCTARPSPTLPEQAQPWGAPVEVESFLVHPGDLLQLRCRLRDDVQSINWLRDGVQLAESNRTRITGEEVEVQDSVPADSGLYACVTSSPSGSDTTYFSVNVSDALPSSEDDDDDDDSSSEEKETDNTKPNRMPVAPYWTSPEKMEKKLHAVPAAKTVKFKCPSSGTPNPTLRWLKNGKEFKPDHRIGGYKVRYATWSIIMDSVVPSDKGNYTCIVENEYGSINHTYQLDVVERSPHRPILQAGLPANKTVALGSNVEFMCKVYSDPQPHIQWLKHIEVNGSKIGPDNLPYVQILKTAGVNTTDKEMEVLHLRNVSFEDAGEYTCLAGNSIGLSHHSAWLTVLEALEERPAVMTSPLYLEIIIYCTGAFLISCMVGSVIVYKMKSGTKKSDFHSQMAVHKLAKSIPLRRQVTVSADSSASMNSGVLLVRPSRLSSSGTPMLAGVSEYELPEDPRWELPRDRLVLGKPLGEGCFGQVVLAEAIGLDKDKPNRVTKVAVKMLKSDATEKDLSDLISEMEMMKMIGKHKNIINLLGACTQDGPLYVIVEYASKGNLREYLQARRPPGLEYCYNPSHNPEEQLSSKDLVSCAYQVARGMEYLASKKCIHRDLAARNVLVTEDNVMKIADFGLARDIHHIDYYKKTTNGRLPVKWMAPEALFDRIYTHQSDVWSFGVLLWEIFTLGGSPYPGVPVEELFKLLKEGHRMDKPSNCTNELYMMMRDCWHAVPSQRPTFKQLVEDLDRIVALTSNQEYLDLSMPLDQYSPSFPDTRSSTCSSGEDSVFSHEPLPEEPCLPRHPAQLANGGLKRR

Row | SH2 binding enrichment [14] | SH2 binding enrichment [15] | SH2 binding enrichment [16] | Sequence | phosphorylation enrichment [1] | phosphorylation enrichment [2] | phosphorylation enrichment [3] | phosphorylation enrichment [4] | phosphorylation enrichment [5] | phosphorylation enrichment [6] | phosphorylation enrichment [7] | phosphorylation enrichment [8] | phosphorylation enrichment [9] | phosphorylation enrichment [10] | phosphorylation enrichment [11] | phosphorylation enrichment [12] | phosphorylation enrichment [13]
1 | 0.809 | 0.545 | 0.757 | ANFTEYVATSW [CDKL5_Y171_R175S_YF] | 1.03 | 1.03 | 0.988 | 0.555 | 0.511 | 0.892 | 0.983 | 0.578 | 0.505 | 0.841 | 0.983 | 0.512 | 0.974
2 | 0.662 | 0.337 | 0.741 | ANNEFYFQVCA | 0.755 | 1.37 | 0.588 | 0.478 | 0.536 | 0.818 | 1.26 | 0.486 | 0.601 | 0.656 | 0.939 | 0.43 | 1.25
3 | 0.82 | 0.728 | 1.26 | AQRKLYRNVML [ZNF569_Y33] | 0.4 | 0.583 | 0.287 | 0.41 | 0.481 | 0.482 | 0.566 | 0.535 | 0.373 | 0.412 | 0.372 | 0.47 | 0.629
4 | 0.412 | 0.282 | 0.45 | MSLRSYGSWEG [APC_Y96_R99W] | 0.034 | 0.881 | 0.338 | 0.633 | 0.459 | 0.273 | 1.32 | 0.705 | – | 0.581 | 0.671 | 0.047 | 0.793

More lines, now with the values behind:

Row | Sequence | SH2 binding enrichment [14] | SH2 binding enrichment [15] | SH2 binding enrichment [16] | phosphorylation enrichment [1] | phosphorylation enrichment [2] | phosphorylation enrichment [3] | phosphorylation enrichment [4] | phosphorylation enrichment [5] | phosphorylation enrichment [6] | phosphorylation enrichment [7] | phosphorylation enrichment [8] | phosphorylation enrichment [9] | phosphorylation enrichment [10] | phosphorylation enrichment [11] | phosphorylation enrichment [12] | phosphorylation enrichment [13]
5 | ALWYIYLHTRS [ENG_Y614_S615L] | 0.607 | 0.521 | 0.641 | 0.62 | 1.39 | 0.476 | 0.432 | 0.384 | 0.733 | 1.1 | 0.331 | 0.514 | 0.542 | 0.821 | 0.352 | 1.09
6 | ANFAKYGNPNE [BCHE_Y505] | 0.6 | 0.382 | 0.784 | 0.462 | 0.549 | 0.331 | 0.307 | 0.362 | 0.357 | 0.561 | 0.461 | 0.406 | 0.384 | 0.426 | 0.361 | 0.372
7 | AQADIYKANFQ [IKBKG_Y308_D311N] | 0.729 | 0.504 | 0.873 | 0.389 | 0.81 | 0.408 | 0.536 | 0.659 | 0.761 | 0.586 | 0.799 | 0.461 | 0.361 | 0.573 | 0.461 | 0.829
8 | ARDVIYIIIPA [FRKtide_2014] | 2.09 | 1.44 | 1.82 | 2.92 | 1.36 | 0.986 | 0.873 | 1.23 | 1.17 | 1.31 | 1.52 | 0.559 | 2.48 | 2 | 2.21 | 1.42
9 | RETLTYAQAQG [BRD1_Y33_R38G] | – | – | – | 0.916 | 0.448 | 0.934 | 0.551 | 0.982 | 0.418 | 0.579 | 0.768 | 0.383 | – | 0.149 | 0.391 | –

Reference: the supplement of paper PMC10065799, “High-throughput profiling of sequence recognition by tyrosine kinases and SH2 domains using bacterial peptide display” (eLife, 2023)
